Measured values taken from article PMC2112199 (The Journal of Cell Biology, 1982).
Where “and” joins values, the source holds several entries; their conditions need not be identical. Equal entries are not always repeated. Where two headings read alike, the source gives them in different places.

How the values were obtained:
Acanthamoeba actin [1] = target: Acanthamoeba actin (Acanthamoeba)
Acanthamoeba actin [2] = target: Acanthamoeba actin (Acanthamoeba); assay: critical concentration of actin polymerization at steady state
[3] = target: Rabbit skeletal muscle actin (rabbit, UniProt P68135 1-377); assay: inhibition of actin polymerization by profilin

B1: Acanthamoeba profilin (natural protein)
chain: SWQTYVDTNLVGTGAVTQAAILGLDGNTWATSAGFAVTPAQGQTLASAFNNADPIRASGFDLAGVHYVTLRADDRSIYGKKGSAGVITVKTSKSILVGVYNEKIQPGTAANVVEKLADYLIGQGF
- Kd (Acanthamoeba actin [1]): 4 µM and 3.1 µM and 3.7 µM
- Kd (Acanthamoeba actin [2]): 0.9 µM and 1.4 µM and 1.3 µM
- Kd [3]: > 30 µM
